According to patent publication US20240336907A1, “NOVEL ENDO-ß-N-ACETYLGLUCOSAMINIDASE” (priority 2020, published 2024):

System: (Fucα1,6)GlcNAc-mAb2
Experiment: Transglycosylation activity with sugar chain oxazoline [N3-PEG(3)]-MSG1(9)-Ox as donor
Type: biochemical
Conditions: donor [N3-PEG(3)]-MSG1(9)-Ox (8 eq.), enzyme 1.25 μg, 28° C., pH 7.5
Protocol: Transglycosylation activity was evaluated as follows. […] A sample was taken from each of the reaction solutions at 1, 2, 4, 6, and 24 hours after initiation of the reaction and analyzed for protein by a fully automated electrophoresis system as mentioned above. In the chromatogram obtained, an unreacted product and transglycosylated molecule, mAb2-(MSG1-N3)2 were confirmed as discrete peaks. The transglycosylation rate was calculated based on the peak-area ratio between the unreacted product and the transglycosylated molecule in accordance with the following expression.
Transglycosylation rate (%)=[[peak area of mAb2-(MSG1-N3)2-derived H chain]/{[peak area of (Fucα1,6)GlcNAc-mAb2-derived H chain]+[peak area of mAb2-(MSG1-N3)2-derived H chain]}]×100
Similarly, the transglycosylation rates of individual Endo-Si mutant enzymes at each time period for a reaction were calculated (Table 5).

Measured: Transglycosylation rate

B1: Endo-Si WT: endo-β-N-acetylglucosaminidase derived from Streptococcus iniae, amino acid positions 34 to 928 in SEQ ID NO: 2 (protein, listed as Streptococcus iniae)
chain: REELKMPNGLEQSIADVEAKIDALTYLSKNSKDEFKHSMYEIPSNREHKPVSPKQALQNAKKADAQAERLAKMTIPKKEELKALEGPLYGGYFRTWQDKTSDPTETNKVNSFGELPKEVDLAFVFHDYTKDYSLFWEELATKQVPKLNKQGTRVIRTIPWRFLSGADHSDISADKEKFPNTEAGNKALAKAIVDEYVYKYNLDGLDIDIERDSVPKVNDKEDPEALARTVEVFKEIGKLIGANGADKSRLLIMDTTYTAEENPLIKETAQYLNLLLVQVYGFSGENGNYLHHKNILDETSSMEGRWQGYSKYIRPEQYMVGFSFYEEKDFNNRWKDINEEDPSDPHIGEKIQGTRAERYAKWQPKTGGLKGGLFSYAIDRDGVAQPKQKTEHPELDKIVKSEYKVSKALKKLMMTDDQYQPIDQSDFPDKALRESIIKQVGTRRGDLERFKGTLRLDNPEIKDLTGLNKLKRVAKLELINLPKITKIDKDDLPQNLKPLTDNQKSNLEIKGTYDDSKLYKDIPAFDLVISGLSGLESLDISGHQRDTLSGIDASTLPSLKAINISDNHFDLAQGTENRHILDTILATLAKNGASTASFDKQKPKGLYPESYSTAPLHLQVGQGKINVIDDLIFGTRTNQNTLINTENDFEAYKEQTIQGKPFIAPDYLYDNFKVSYKEYSASIVDSTLAETTDKTIDTAKAETYQVTVSNKDGKTVHSVKVIVGDEKPMMVNLAQDAKIIGTDNMTQSAKVFDGQKDQFLLSWNKDSSVIFELKTPGTAKHWRFFDDGKNDSVTLSVFKGDASNFETEKDKAENWVEITKDSRKNDDKVFSSPLEVDNAKYLKVTIKKEAKYIYFNELQILGYPGVVAKKTADDLRPTEADKSDDKSDKNDTEAK
0.0%: 1 h | 2 h | 4 h | 6 h | 24 h
